# T1: endogenous HDAC6 (A549 cells) (human, UniProt Q9UBN7 1-1215)
# T1 construct: Endogenous intracellular protein, not a recombinant construct; also called histone deacetylase 6
# T1 sequence (looked up): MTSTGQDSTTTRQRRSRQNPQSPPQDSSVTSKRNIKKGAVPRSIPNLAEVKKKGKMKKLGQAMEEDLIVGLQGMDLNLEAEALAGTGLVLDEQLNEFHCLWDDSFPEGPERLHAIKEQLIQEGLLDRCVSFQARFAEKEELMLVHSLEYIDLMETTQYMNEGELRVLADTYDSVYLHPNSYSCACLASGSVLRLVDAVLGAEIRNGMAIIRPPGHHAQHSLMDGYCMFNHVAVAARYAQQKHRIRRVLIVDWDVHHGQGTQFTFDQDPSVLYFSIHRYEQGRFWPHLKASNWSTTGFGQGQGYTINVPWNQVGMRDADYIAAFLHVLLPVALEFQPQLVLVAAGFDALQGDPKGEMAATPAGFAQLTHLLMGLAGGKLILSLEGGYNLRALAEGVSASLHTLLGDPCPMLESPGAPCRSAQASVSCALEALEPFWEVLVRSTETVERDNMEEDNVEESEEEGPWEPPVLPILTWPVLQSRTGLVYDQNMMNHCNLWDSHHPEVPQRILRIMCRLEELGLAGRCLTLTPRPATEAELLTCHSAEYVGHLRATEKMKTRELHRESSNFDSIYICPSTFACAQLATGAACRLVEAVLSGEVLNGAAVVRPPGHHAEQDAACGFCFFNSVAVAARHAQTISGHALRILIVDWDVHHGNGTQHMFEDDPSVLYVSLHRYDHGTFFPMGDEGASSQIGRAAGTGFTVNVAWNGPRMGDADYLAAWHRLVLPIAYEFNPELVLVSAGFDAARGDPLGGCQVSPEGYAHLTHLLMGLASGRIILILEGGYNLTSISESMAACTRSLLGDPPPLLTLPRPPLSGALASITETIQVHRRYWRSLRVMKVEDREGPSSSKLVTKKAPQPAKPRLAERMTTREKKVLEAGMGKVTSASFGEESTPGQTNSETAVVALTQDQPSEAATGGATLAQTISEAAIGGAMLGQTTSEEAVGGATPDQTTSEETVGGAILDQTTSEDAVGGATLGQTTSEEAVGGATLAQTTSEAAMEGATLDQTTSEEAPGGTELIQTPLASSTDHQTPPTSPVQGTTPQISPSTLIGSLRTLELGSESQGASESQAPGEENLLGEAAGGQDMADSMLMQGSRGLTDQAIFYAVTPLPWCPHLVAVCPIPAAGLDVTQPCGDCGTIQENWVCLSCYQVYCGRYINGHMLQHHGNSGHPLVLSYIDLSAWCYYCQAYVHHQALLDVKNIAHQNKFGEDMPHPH
# T2: Purified His-tagged human HDAC6 ZnF domain (1108-1215) (human, UniProt Q9UBN7 1108-1215)
# T2 construct: range 1108-1215; also called ZnF-UBP; His-HDAC6 ZnF (1108-1215); not shown: His tag from vector pOPINF
# T2 sequence (looked up): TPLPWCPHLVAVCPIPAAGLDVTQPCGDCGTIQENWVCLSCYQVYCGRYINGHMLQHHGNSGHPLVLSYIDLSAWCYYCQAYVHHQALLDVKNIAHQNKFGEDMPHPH
# Assays:
# [1] = target: T1, endogenous HDAC6 (A549 cells); assay: GFP-trap immunoprecipitation of GFP-DARPin F10 against control GFP-DARPin E3_5 from A549 cells, mass spectrometry, volcano plot
# From the text: (§1) [0013] (A) Schematic of HDAC6, showing the catalytic domains (CD1, CD2) and the zinc finger domain (ZnF) region that was expressed (amino acids 1108 to 1215) and used to identify binders. Generic nanobody and DARPin structures (PDB:1I3V and PDB:2QJY, respectively) are shown below. […] [0014] […] PD, pull-down; FT, flow-through. [0015] […] A plasmid expressing mRuby was included in all transfections as a control for transfection efficiency (red signal). Scale bar presents […]. [0016] […] [0017] […] Immunoprecipitated material (from D above) was analysed by mass spectrometry and enriched proteins are annotated.
# GFP(10)-ubiquitin = target: T3, GFP(10)-ubiquitin (UniProt P0CG48 1-76); assay: split-GFP assay in 293T cells (specificity control)
# T3 construct: Expressed in 293T cells; not shown: GFP beta strand 10 and any linker
# [2] = target: T2, Purified His-tagged human HDAC6 ZnF …; assay: pull-down with anti-Flag agarose beads from a mix of His-ZnF (1108-1215), Flag-DARPin and mono-ubiquitin; immunoblot with anti-His, anti-ubiquitin and anti-Flag
# From the text: as §1
binder,measurement,setting,value
"GFP-DARPin F10 fusion protein (designed binder, Transiently expressed in A549 cells from pcDNA3.1-GFP-DARPin F10; not shown: GFP and any linker) DLGKKLLEAARAGQDDEVRILMANGADVNANDRNGVTPLHLAADKGHLEIVEVLLKTGADVNAIDIMGATPLHLAAAHGHLEIVEVLLKAGADVNAMDHKGFTPLHLAAWRGHLEIVEVLLKHGADVNAQDKFGKTPFDLAIDNGNEDIAEVLQKAA",binding result,[1],binds
"GFP(11)-HDAC6 ZnF (1108-1215) W1182A mutant (other, human, UniProt Q9UBN7 1108-1215, looked up, range 1108-1215; Specificity control in the split-GFP assay; also called ZnFm; 1182 mutant; not shown: GFP beta strand 11 and any linker) TPLPWCPHLVAVCPIPAAGLDVTQPCGDCGTIQENWVCLSCYQVYCGRYINGHMLQHHGNSGHPLVLSYIDLSAACYYCQAYVHHQALLDVKNIAHQNKFGEDMPHPH",binding result,GFP(10)-ubiquitin,no binding
Flag-tagged DARPin F10 (F10 with histidine and detection tags) (designed binder) MRGSHHHHHHHHGSDLGKKLLEAARAGQDDEVRILMANGADVNANDRNGVTPLHLAADKGHLEIVEVLLKTGADVNAIDIMGATPLHLAAAHGHLEIVEVLLKAGADVNAMDHKGFTPLHLAAWRGHLEIVEVLLKHGADVNAQDKFGKTPFDLAIDNGNEDIAEVLQKAAKLNDYKDDDDK,binding result,[2],binds

# — US20240018265A1 (FRIEDRICH MIESCHER INSTITUTE FOR BIOMEDICAL RESEARCH, published 2024)
